# Assay results: patent US20200024370A1
# Molecular target: NpuN (cysteine-free, C.F.), N-terminal Npu DnaE intein segment with His tag and three C-terminal cysteines, coupled to SulfoLink resin (Nostoc punctiforme)
# Assay: cell-based or functional assay
substance,measurement,value
"NpuC^HN-SK^C, C-terminal intein segment with serine to histidine mutation fused to streptokinase with cysteine as +1 residue (from UniProt P00779 27-440)","cleaving percentage (C-terminal cleavage, SDS-PAGE), in solution, room temperature, pH 8.5, 1 hour",> 50%
